Laboratory results as given in patent US20240270857A1 (CHIA TAI TIANQING PHARMACEUTICAL GROUP, published 2024).

T1: human IL-36R overexpressed on 293T-hIL36R-NFκB cells (human, UniProt Q9HB29 20-575)
T1 sequence: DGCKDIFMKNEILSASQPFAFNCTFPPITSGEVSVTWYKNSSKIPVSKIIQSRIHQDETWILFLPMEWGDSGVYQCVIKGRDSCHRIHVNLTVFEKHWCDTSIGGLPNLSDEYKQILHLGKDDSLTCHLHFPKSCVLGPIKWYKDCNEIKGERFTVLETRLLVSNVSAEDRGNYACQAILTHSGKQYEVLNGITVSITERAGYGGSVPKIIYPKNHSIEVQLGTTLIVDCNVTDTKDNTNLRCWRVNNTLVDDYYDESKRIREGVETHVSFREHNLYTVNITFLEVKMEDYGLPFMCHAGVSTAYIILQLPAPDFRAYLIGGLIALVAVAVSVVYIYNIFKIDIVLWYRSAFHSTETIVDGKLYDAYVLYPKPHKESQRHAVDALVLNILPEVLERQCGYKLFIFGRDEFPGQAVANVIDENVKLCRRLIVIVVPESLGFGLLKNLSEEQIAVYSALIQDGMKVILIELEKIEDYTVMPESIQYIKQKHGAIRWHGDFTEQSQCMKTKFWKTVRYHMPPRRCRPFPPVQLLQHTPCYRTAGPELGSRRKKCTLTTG

T2: IL-36R naturally expressed on OVCAR8 cells and on normal human epidermal keratinocytes (NHK cells) (human, UniProt Q9HB29 20-575)
T2 sequence (looked up): T1 sequence

T3: Human IL-1Rrp2/IL-1R6 protein, His Tag (ACROBiosystems, IL2-H52H6) (human, UniProt Q9HB29 20-335)
T3 construct: Bought protein; the soluble protein is likely only the extracellular part; also called hIL-36R; human IL36R antigen; not shown: His tag
T3 sequence: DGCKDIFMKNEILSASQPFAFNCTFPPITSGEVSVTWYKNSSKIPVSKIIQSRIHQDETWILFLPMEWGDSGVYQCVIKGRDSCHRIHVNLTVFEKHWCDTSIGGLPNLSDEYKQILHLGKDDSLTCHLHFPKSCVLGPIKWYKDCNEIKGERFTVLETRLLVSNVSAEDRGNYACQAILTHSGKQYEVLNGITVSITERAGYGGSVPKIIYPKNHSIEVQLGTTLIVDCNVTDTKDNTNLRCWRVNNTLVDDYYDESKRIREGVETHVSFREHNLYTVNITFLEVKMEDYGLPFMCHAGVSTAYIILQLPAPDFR

B1: hz72C1-1.2 (antibody, human IgG4 S228P, kappa)
heavy: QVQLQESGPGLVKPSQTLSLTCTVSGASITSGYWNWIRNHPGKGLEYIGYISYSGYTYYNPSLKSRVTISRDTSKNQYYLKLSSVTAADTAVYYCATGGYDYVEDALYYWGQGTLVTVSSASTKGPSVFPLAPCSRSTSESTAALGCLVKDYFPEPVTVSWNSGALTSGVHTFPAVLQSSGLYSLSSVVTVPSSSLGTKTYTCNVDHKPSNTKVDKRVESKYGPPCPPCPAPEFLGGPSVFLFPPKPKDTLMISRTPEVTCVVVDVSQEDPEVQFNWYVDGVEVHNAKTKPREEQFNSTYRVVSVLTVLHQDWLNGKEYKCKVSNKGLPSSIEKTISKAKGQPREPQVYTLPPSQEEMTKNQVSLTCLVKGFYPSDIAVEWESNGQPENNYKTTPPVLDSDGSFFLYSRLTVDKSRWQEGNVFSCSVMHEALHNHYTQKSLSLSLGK
light: DIQMTQSPSSLSASVGDRVTITCRASSNVRYMYWYQQKPGKAPKLWIYLTSNLASGVPSRFSGSGSGTSYTLTISSLQPEDFATYYCQQFTTSPYTFGQGTKLEIKRTVAAPSVFIFPPSDEQLKSGTASVVCLLNNFYPREAKVQWKVDNALQSGNSQESVTEQDSKDSTYSLSSTLTLSKADYEKHKVYACEVTHQGLSSPVTKSFNRGEC
notes: Humanized, human IgG4 / kappa
B2: hz72C1-1.1 (antibody, human IgG4 S228P, kappa)
heavy: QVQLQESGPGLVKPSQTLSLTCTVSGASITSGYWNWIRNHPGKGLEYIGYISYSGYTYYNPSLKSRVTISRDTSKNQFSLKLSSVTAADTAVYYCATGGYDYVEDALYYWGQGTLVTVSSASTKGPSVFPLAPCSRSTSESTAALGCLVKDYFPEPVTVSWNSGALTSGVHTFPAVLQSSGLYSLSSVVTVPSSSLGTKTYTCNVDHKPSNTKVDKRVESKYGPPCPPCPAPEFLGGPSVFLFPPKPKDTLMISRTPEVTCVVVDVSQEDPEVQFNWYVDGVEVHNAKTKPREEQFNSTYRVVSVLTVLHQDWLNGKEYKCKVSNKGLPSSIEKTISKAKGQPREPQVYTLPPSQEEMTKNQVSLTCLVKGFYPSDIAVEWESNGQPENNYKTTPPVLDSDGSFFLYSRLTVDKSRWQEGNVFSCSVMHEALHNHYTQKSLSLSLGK
light: B1 light
notes: Humanized, human IgG4 / kappa; also called humanized 72C1 antibody 1.1
B3: BI655130 (antibody, human IgG1, kappa, L234A L235A)
heavy: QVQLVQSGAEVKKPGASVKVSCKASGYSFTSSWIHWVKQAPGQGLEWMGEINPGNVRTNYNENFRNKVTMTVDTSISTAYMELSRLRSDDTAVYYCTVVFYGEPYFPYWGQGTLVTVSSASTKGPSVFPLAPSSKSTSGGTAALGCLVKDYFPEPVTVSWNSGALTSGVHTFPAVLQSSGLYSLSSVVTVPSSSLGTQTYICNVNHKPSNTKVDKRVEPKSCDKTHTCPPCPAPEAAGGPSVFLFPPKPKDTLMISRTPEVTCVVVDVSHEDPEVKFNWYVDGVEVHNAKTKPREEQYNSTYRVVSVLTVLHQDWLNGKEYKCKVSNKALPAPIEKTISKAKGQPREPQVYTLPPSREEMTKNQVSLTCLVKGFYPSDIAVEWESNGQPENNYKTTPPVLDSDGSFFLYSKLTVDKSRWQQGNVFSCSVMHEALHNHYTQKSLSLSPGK
light: QIVLTQSPGTLSLSPGERATMTCTASSSVSSSYFHWYQQKPGQAPRLWIYRTSRLASGVPDRFSGSGSGTDFTLTISRLEPEDAATYYCHQFHRSPLTFGAGTKLEIKRTVAAPSVFIFPPSDEQLKSGTASVVCLLNNFYPREAKVQWKVDNALQSGNSQESVTEQDSKDSTYSLSSTLTLSKADYEKHKVYACEVTHQGLSSPVTKSFNRGEC
notes: also called Spesolimab

biological target: T1, human IL-36R overexpressed on …; test: cell-based or functional assay

Binder	IC50 (M); hIL36α; NFκB-luciferase	IC50 (M); hIL36αβγ; NFκB-luciferase	IC50 (M); hIL36β; NFκB-luciferase	IC50 (M); hIL36γ; NFκB-luciferase	Maximum inhibition rate %; hIL36α; NFκB-luciferase	Maximum inhibition rate %; hIL36αβγ; NFκB-luciferase	Maximum inhibition rate %; hIL36β; NFκB-luciferase	Maximum inhibition rate %; hIL36γ; NFκB-luciferase
B1	1.04e-08 M	~4.15e-08 M	5.07e-09 M	2.18e-08 M	101%	86.7%	96.9%	98.4%
B2	9.56e-09 M	5.27e-08 M	3.07e-09 M	2.82e-08 M	99.6%	109%	94.6%	98.1%
B3	6.09e-09 M	2.36e-08 M	2.45e-09 M	~1.32e-08 M	84.5%	81.2%	86.7%	79.2%

biological target: T2, IL-36R naturally expressed on OVCAR8 …; test: cell-based or functional assay

Binder	IC50 (M); hIL36α; IL-8 production	IC50 (M); hIL36αβγ; IL-8 production	IC50 (M); hIL36β; IL-8 production	IC50 (M); hIL36γ; IL-8 production	Maximum inhibition rate %; hIL36α; IL-8 production	Maximum inhibition rate %; hIL36αβγ; IL-8 production	Maximum inhibition rate %; hIL36β; IL-8 production	Maximum inhibition rate %; hIL36γ; IL-8 production
B1	1.19e-10 M	3.29e-10 M	4.33e-10 M	1.14e-10 M	96.1%	89.6%	84.7%	85.7%
B2	2.19e-10 M	3.72e-10 M	3.85e-10 M	1.21e-10 M	99%	93.7%	86.7%	102%
B3	1.26e-10 M	1.98e-10 M	3.03e-10 M	4.42e-11 M	106%	98.9%	101%	105%

biological target: T3, Human IL-1Rrp2/IL-1R6 protein, His Tag …; test: ELISA, plate coated with human IL-1Rrp2/IL-1R6 His Tag, HRP-protein A/G, OD450
Description: The binding activity of anti-IL-36R antibodies to IL-36R was analyzed by ELISA using human IL-1Rrp2/IL-1R6 protein, His Tag (ACROBiosystems, IL2-H52H6) and CynoIL36R-ECD mFc (for detection of chimeric and humanized antibodies), and hIL36R-ECD hFc and CynoIL36R-ECD hFc protein (for detection of hybridoma antibodies) as antigens. A 96-well plate (Costar, 9018) was coated with 2 μg/mL antigen at 100 μL/well and incubated overnight at 4° C. After the 96-well plate was washed with a washing buffer (PBS containing 0.05% v/v Tween 20), a blocking buffer (PBS containing 2% bovine serum albumin) was added for blocking at 37° C. for 2 h. After the 96-well plate was washed with the washing buffer, 100 μL of the gradient diluted anti-IL-36R antibody of the present disclosure or the reference antibody BI655130 (the initial concentration of the antibody was 66 nM, 4-fold gradient dilution) was added to each well, and the plate was incubated at room temperature for 1 h. After the 96-well plate was washed with the washing buffer, 100 μL of horseradish peroxidase-conjugated recombinant protein A/G (TheroScientific, 32490) was added to each well, and the plate was incubated at room temperature for 1 h. After the 96-well plate was washed with the washing buffer, 100 μL of a TMB solution (Thermo, 00-4201-56) was added to each well, and the plate was incubated at room temperature for 2 min. Finally, 100 μL of a stop solution (2 N H₂SO₄) was added to each well to stop the reaction. Absorbance was read at 450 nm using a microplate reader (PE, Envision), the resulting data was analyzed using GraphPad Prism, and EC₅₀ was calculated. Binding EC₅₀ of the chimeric anti-IL-36R antibodies to hIL-36R in an ELISA assay is shown in FIG. 1. and binding EC₅₀ of the chimeric anti-IL-36R antibodies to CynoIL-36R in an ELISA assay is shown in FIG. 2. The binding of BI655130 is shown as a control, and the binding of IgG4 is shown as a negative control.

Binder	EC50
B1	5.02 nM
B2	2.94 nM
B3	0.764 nM

biological target: T1, human IL-36R overexpressed on …; test: FACS on 293T-hIL36R-NFκB cells, ratio of MFI to background MFI
Description: After the cells was washed with PBS, the cells were resuspended with 100 μL of PBS and then the fluorescence signal was detected using a flow cytometer (BD, Accuri C6). […] The ratio was the ratio of mean fluorescence intensity (MFI) of the experimental group/the background MFI, and the resulting data were analyzed using GraphPad Prism.
Affinity, binding and blocking assays for humanized antibodies hz72C1-1.1, hz72C1-1.2, hz72C1-1.3, hz72C1-2.1, hz72C1-2.2 and hz72C1-2.3 as well as hz84C4-1.1, hz84C4-1.2, hz84C4-1.3, hz84C4-1.4, hz84C4-1.5, hz84C4-2.1, hz84C4-2.2, hz84C4-2.3, hz84C4-2.4 and hz84C4-2.5 were performed according to the methods of Example 4, Example 5. Example 6, Example 7 and Example 8.

Binder	EC50
B1	11.9 nM
B2	11.6 nM
B3	5.13 nM

biological target: T2, IL-36R naturally expressed on OVCAR8 …; test: cell-based or functional assay; remark: another data set of the same source

Binder	IC50 (M); hIL36α; IL-8 production	IC50 (M); hIL36αβγ; IL-8 production	IC50 (M); hIL36β; IL-8 production	IC50 (M); hIL36γ; IL-8 production	Maximum inhibition rate %; hIL36α; IL-8 production	Maximum inhibition rate %; hIL36αβγ; IL-8 production	Maximum inhibition rate %; hIL36β; IL-8 production	Maximum inhibition rate %; hIL36γ; IL-8 production
B1	6.21e-11 M	8.82e-11 M	2.61e-11 M	1.38e-11 M	98.9%	97.9%	98.2%	98.2%
B2	3.02e-11 M	9.17e-11 M	4.11e-11 M	2.59e-11 M	99%	97.5%	98.4%	98.2%
B3	4.34e-11 M	4.88e-11 M	1.57e-11 M	1.42e-11 M	99.8%	99.9%	99.7%	99.7%
